Data as given in US20200399344A1 (SHATTUCK LABS, published 2020).
Like-named read-outs stand apart in the source and are kept apart here. One block for each binder: values may come before it.

B2: recombinant human CD2 protein (rhCD2-His) (receptor, UniProt P06729 25-209, looked up)
chain: KEITNALETWGALGQDINLDIPSFQMSDDIDDIKWEKTSDKKKIAQFRKEKETFKEKDTYKLFKNGTLKIKHLKTDDQDIYKVSIYDTKGKNVLEKIFDLKIQERVSKPKISWTCINTTLTCEVMNGTDPELNLYQDGKHLKLSQRVITHKWTTSLSAKFKCTAGNKVSKESSVEPVSCPEKGLD
notes: also called recombinant CD2 protein; not shown: His tag
B4: recombinant human CD58-Fc fusion protein (rhCD58-Fc) (Fc fusion, UniProt P19256 29-215, looked up)
chain: FSQQIYGVVYGNVTFHVPSNVPLKEVLWKKQKDKVAELENSEFRAFSSFKNRVYLDTVSGSLTIYNLTSSDEDEYEMESPNITDTMKFFLYVLESLPSPTLTCALTNGSIEVQCMIPEHYNSHRGLIMYSWDCPMEQCKRNSTSIYFKMENDLPQKIQCTLSNPLFNTTSSIILTTCIPSSGHSRHR
notes: Positive control; also called recombinant hCD58-Fc protein; not shown: Fc

Assays:
[1] = molecular target: T1, anti-human IgG antibody (plate-bound); assay: ELISA (single sided Fc): coat Anti-Human IgG (H+L) Jax# 109-005-088, detection HRP Goat anti-human FCgamma
T1 construct: also called anti-human Fc antibody
Experimental: Anti-human IgG was coated on plates and increasing amounts of the indicated chimeric proteins were added to the plates. hIgG was used as a positive control, and mCD80-Fc-NKG2A was used as a negative control. The binding was detected using an anti-human Fcgamma HRP.
To understand whether the Fc linkers from the native chimeric proteins can be accessed by anti-human antibodies, ELISA-based assays were performed. For these assays, an anti-human IgG antibody was coated on plates and increasing amounts of the hCD86-Fc-NKG2A and hTGFBR2-Fc-NKG2A, mCD80-Fc-NKG2a chimeric proteins, and a human IgG antibody were added to the plates for capture by the plate-bound anti-human antibody. The human IgG antibody was used as a positive control and to generate a standard curve. The mCD80-Fc-NKG2a chimeric protein was included as a negative control as containing a non-human Fc domain. The protein bound to the anti-human IgG antibody was detected using an anti-human Fcgamma HRP.

[2] = molecular target: T2, recombinant HLA-E-His protein (human, UniProt P13747 22-305, limits assumed); assay: ELISA: the chimeric protein is the titrated coat (1:3), detection HLA-E-His (Novus NBP2-47435PEP), HRP Anti-6x-His-HRP
T2 construct: also called recombinant HLA-E (HLA-E-His); not shown: His tag
T2 sequence (P13747 22-305 limits assumed): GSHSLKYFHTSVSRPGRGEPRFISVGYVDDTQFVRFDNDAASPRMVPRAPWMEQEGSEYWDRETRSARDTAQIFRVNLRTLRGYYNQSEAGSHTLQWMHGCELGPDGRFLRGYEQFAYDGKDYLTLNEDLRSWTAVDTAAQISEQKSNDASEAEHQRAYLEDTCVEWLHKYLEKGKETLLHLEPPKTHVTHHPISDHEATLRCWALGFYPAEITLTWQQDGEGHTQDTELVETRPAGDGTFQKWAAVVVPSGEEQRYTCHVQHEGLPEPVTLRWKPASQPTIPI
Experimental: (§1) Similarly, increasing amounts of the hTGFBR2-Fc-NKG2A and hSLAMF6-Fc-NKG2A chimeric proteins chimeric proteins or a negative control protein was coated on plates. Recombinant HLA-E-His protein was added to the plates for capture by the plate-bound chimeric proteins or the negative control protein. The captured HLA-E-His protein was detected using an anti-6×-His-HRP antibody.

[3] = molecular target: B4; assay: ELISA: coat rhCD2-His (Acro CD2-H5226), detection Anti-hFc-HRP
Experimental: (§2) Recombinant human CD2 (rhCD2) protein was coated on plates. Increasing amounts of the indicated chimeric proteins or Recombinant human CD58-Fc fusion protein (rhCD58-Fc) were added and detected using an anti-mFc-HRP (for mCD80-Fc-NKG2A) or anti-hFc-HRP (for rest of the proteins).
(§3) CD2 is a transmembrane protein in T cells that binds to its ligand CD58 on APC in humans and on CD48 in rodents. To understand whether the CD48 and CD58 parts of the hCD48-Fc-NKG2A, and hCD58-Fc-NKG2A chimeric protein can bind CD2, ELISA-based assays were performed. Briefly, recombinant human CD2 protein (rhCD2-His) was coated on plates and increasing amounts of the hCD48-Fc-NKG2A, hCD58-Fc-NKG2A, and mCD80-Fc-NKG2A chimeric proteins and recombinant hCD58-Fc protein was added to the plates for capture by the plate-bound recombinant CD2 protein. The […] chimeric protein served as a negative control and recombinant hCD58-Fc protein served as a positive control. The hCD48-Fc-NKG2A and hCD58-Fc-NKG2A, chimeric proteins and recombinant hCD58-Fc protein bound to the recombinant CD2 protein was detected using an anti-human Fc HRP. The mCD80-Fc-NKG2A chimeric protein bound to the recombinant CD2 protein was detected using an anti-mouse Fc HRP.

[4] = molecular target: T3, recombinant human 2B4 protein (rh2B4-His) (human, UniProt Q9BZW8-2 22-221, limits assumed); assay: ELISA: coat rh2B4-His (Sino 10042-H08H), detection Anti-hFc-HRP
T3 construct: also called recombinant 2B4-His protein; not shown: His tag
T3 sequence (looked up): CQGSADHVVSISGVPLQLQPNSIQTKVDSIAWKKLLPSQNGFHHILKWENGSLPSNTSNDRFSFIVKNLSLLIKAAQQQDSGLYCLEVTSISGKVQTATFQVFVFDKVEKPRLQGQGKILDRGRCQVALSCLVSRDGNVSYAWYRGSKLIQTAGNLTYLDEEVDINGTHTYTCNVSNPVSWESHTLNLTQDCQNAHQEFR
Experimental: Increasing amounts of the indicated chimeric proteins or rhCD48-Fc were added and detected using an anti-mFc-HRP (for mCD80-Fc-NKG2A) or anti-hFc-HRP (for rest of the proteins).
CD48 is the ligand for 2B4. To understand whether the CD48 parts of the hCD48-Fc-NKG2A chimeric protein can bind 2B4, ELISA-based assays were performed. Briefly, recombinant human 2B4 protein (rh2B4-His) was coated on plates and increasing amounts of the hCD48-Fc-NKG2A and mCD80-Fc-NKG2A chimeric proteins and recombinant human CD48-Fc (rhCD48-Fc) protein was added to the plates for capture by the plate-bound recombinant 2B4 protein. The hCD48-Fc-NKG2A chimeric protein and recombinant human CD48-Fc (rhCD48-Fc) protein bound to the recombinant 2B4 protein was detected using an anti-human Fc HRP. The mCD80-Fc-NKG2A chimeric protein, which was used as a negative control, bound to the recombinant 2B4 protein was detected using an anti-mouse Fc HRP.

[5] = molecular target: B2; assay: ELISA: coat rhCD2-His (Acro CD2-H5226), detection Anti-hFc-HRP
Experimental: as §2, §3

[6] = molecular target: T4, recombinant human SLAMF6-Fc (rhSLAMF6-Fc) protein (human, UniProt Q96DU3 22-226); assay: dual ELISA; coat rhSLAMF6-Fc, hSLAMF6-Fc-NKG2a titrated, detection HLA-E-His, Anti-His-6x-HRP; the signal needs both bindings
T4 construct: not shown: Fc
T4 sequence (looked up): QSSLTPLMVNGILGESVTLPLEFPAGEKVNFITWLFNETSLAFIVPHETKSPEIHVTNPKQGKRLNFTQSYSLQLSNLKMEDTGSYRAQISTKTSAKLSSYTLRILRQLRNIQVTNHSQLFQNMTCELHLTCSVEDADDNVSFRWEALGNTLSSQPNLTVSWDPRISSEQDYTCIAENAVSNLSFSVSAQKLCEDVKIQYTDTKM
Experimental: Increasing amounts of the hSLAMF6-Fc-NKG2A chimeric protein was added and detected using HLA-E-His. A chimeric protein comprising ECD of a type II transmembrane protein other than NKG2A was used as a negative control.
To understand whether the hSLAMF6-Fc-NKG2A chimeric protein can binds simultaneously to both hSLAMF6 and HLA-E, the following ELISA experiment was carried out. Briefly, and recombinant hSLAMF6 (rhSLAMF6-Fc) protein was coated on plates. Increasing amounts of the hSLAMF6-Fc-NKG2A chimeric protein was added to the plates for capture by the recombinant human SLAMF6-Fc (rhSLAMF6-Fc) protein. Further, recombinant HLA-E (HLA-E-His) protein was added to the plate for capture by hSLAMF6-Fc-NKG2A chimeric protein. The binding of the HLA-E-His protein was detected using an anti-His 6× HRP antibody.

[7] = molecular target: T5, hCD2 expressed on CHO-K1/hCD2 cells (human, UniProt P06729 25-351); assay: flow cytometry cell binding assay, CHOk1 cells, axis label GEO Mean - PE MFI
T5 construct: whole, on cells
T5 sequence (looked up): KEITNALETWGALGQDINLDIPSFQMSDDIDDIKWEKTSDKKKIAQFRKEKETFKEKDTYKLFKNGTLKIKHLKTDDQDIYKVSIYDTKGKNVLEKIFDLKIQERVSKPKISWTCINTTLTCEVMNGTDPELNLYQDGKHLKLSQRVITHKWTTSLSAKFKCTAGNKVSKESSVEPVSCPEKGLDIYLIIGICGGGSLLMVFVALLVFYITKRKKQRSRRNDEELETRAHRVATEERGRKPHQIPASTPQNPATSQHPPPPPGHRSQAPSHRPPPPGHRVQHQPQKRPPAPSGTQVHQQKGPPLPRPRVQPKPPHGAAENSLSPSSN

[8] = molecular target: T2, recombinant HLA-E-His protein; assay: ELISA: the chimeric protein is the titrated coat (1:3), detection HLA-E-His (Novus NBP2-47435PEP), HRP Anti-6x-His-HRP; remark: listed apart in the source
Experimental: as §1, with “In a complementary experiment,” for “Similarly,”, “hCD48-Fc-NKG2A, hCD58-Fc-NKG2A,” for “hTGFBR2-Fc-NKG2A”, “hCD80-Fc-NKG2A” for “hSLAMF6-Fc-NKG2A chimeric proteins”

Binder: B2
binding result [3]: binds

B3: recombinant human CD48-Fc (rhCD48-Fc) protein (Fc fusion, UniProt P09326 27-220, looked up)
chain: QGHLVHMTVVSGSNVTLNISESLPENYKQLTWFYTFDQKIVEWDSRKSKYFESKFKGRVRLDPQSGALYISKVQKEDNSTYIMRVLKKTGNEQEWKIKLQVLDPVPKPVIKIEKIEDMDDNCYLKLSCVIPGESVNYTWYGDKRPFPKELQNSVLETTLMPHNYSRCYTCQVSNSVSSKNGTVCLSPPCTLARS
notes: Comparator; not shown: Fc
binding result [4]: binds

Binder: B4
EC50 (read off the curve) [5]: ~1 µg/mL

More lines, now with the values ahead:

EC50 (read off the curve) [1]: ~10 µg/mL | EC50 (read off the curve) [2]: ~5 µg/mL
B1: human TGFBR2-Fc-NKG2A chimeric protein (Fc fusion)
chain: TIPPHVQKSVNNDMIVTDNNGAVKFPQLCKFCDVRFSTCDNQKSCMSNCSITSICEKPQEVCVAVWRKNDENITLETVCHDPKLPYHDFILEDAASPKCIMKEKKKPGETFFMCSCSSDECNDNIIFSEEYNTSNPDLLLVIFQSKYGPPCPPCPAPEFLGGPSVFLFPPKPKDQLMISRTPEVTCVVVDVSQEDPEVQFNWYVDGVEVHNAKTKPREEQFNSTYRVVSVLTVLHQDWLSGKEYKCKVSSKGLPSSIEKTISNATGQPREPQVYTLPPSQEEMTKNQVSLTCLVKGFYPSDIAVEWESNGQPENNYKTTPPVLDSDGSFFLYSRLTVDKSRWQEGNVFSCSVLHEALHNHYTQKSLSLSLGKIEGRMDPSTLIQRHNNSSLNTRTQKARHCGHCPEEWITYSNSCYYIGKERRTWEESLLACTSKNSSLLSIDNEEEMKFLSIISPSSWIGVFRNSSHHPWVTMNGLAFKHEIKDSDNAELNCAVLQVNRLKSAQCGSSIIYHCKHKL
notes: also called hTGFBR2-Fc-NKG2A

EC50 (read off the curve) [6]: ~30 µg/mL | EC50 (read off the curve) [2]: ~6 µg/mL
B5: human SLAMF6-Fc-NKG2A chimeric protein (Fc fusion)
chain: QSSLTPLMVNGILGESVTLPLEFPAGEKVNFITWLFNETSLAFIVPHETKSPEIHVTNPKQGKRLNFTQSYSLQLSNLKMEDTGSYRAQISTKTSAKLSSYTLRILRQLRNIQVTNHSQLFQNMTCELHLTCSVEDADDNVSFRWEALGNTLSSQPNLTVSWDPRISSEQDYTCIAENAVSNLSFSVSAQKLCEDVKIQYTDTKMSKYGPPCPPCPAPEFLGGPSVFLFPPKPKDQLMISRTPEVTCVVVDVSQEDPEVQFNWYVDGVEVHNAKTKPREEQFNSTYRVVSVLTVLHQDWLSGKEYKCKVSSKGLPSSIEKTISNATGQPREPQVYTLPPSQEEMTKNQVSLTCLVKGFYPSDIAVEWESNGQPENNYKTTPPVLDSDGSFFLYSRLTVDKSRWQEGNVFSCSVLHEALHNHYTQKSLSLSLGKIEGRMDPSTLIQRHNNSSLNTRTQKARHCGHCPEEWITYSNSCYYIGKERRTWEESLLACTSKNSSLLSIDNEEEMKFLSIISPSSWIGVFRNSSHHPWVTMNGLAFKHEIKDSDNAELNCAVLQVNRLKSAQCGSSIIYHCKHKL
notes: also called hSLAMF6-Fc-NKG2A

EC50 (read off the curve) [7]: ~1 µg/mL | EC50 (read off the curve) [8]: ~0.7 µg/mL
B6: human CD58-Fc-NKG2A chimeric protein (Fc fusion)
chain: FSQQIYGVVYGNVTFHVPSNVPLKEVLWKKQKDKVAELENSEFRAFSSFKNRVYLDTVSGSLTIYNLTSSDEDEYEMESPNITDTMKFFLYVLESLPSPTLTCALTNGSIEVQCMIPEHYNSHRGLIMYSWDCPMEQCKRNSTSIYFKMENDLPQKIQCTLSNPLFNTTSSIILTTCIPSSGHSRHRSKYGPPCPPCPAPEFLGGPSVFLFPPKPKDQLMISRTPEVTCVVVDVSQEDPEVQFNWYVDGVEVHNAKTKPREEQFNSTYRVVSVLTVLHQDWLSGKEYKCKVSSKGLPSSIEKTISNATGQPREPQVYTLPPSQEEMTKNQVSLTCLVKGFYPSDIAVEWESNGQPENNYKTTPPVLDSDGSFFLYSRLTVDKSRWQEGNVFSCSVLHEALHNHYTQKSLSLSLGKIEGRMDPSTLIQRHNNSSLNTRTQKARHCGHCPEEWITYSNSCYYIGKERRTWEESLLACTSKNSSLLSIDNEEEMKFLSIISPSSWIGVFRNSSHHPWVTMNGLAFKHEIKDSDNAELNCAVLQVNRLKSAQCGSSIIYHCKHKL
notes: also called hCD58-Fc-NKG2A
